According to article PMC6637906:
pKd: −log10 of the molar value.

System: GST-TfmR (Xanthomonas citri subsp. citri 306)
Assay: EMSA
Details: LightShift Chemiluminescent EMSA Kit per manufacturer; 1-2 ng biotin DNA, 20 pmol GST-TfmR, 15 min (Fig. 6); buffer, salt, pH and temperature not stated

How did the pKd turn out when pmhpC/fadE promoter was run?
Its pKd is 7.06.
